We go through two compounds from PMC4752478, “Probing the Catalytic Mechanism of Vibrio harveyi GH20 β-N-Acetylglucosaminidase by Chemical Rescue” (PLoS ONE, 2016).

As a reminder, the Km is the substrate concentration at which the rate is half of its maximum. Usually kcat stands for the number of substrate molecules converted per active site and unit of time at saturation. A word on the kcat/Km: it is the turnover number divided by the Michaelis constant.

For one data set, the target named is T1, VhGlcNAcase (Vibrio harveyi, UniProt D9ISE0).
T1 sequence (D9ISE0 1-642): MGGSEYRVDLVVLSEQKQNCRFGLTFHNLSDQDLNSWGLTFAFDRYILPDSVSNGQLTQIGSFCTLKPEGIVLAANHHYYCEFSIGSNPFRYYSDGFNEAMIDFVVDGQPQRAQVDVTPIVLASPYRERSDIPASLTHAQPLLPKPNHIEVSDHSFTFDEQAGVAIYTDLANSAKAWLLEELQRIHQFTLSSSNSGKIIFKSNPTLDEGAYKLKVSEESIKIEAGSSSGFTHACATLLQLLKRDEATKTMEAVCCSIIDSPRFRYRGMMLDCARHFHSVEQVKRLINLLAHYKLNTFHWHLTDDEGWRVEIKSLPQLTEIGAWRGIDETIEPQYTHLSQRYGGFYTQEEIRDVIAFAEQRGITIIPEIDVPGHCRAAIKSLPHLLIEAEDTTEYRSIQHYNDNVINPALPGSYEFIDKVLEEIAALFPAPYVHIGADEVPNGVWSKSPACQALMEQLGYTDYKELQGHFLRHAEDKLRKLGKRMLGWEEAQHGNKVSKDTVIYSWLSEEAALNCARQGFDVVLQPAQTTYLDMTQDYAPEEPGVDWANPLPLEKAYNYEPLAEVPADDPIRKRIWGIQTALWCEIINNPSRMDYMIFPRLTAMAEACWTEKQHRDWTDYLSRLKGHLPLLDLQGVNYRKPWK
Briefly: biochemical. To be noted: read-out: Specific activity (nmol/min/μg) / 1 M HCOONa.

For data set [1], the system named is CC(=O)N[C@H]1[C@H](Oc2ccc([N+](=O)[O-])cc2)O[C@H](CO)[C@@H](O)[C@@H]1O. The data set can be described thus: purified protein. To be noted: no sodium formate, 100 mM sodium phosphate pH 7.0, 37°C.

Counter-ions that a name gives are not always drawn.

For `O=CO` [sodium formate], the activity at 1 M on VhGlcNAcase was 80%.

As to VhGlcNAcase (Vibrio harveyi; D437A), in data set [1], the Km turned out to be 390 ± 32 µM, the kcat amounted to 0.14 ± 0.01 s⁻¹ and the kcat/Km is 360 M⁻¹ s⁻¹.
